Laboratory results as given in US20120045393A1 (priority 2009, published 2012).
Read-outs that look alike come from different tables or passages of the source. Blank lines part the entries; values can stand above or below the molecule they belong to. Non-standard residues stand in square brackets, D forms with d. Primed or numbered codes have the meaning given here. DO3A10CM(3) = metal chelator group attached at the N-terminus (X in table rows); DO3A10CM″ = chelating group at the N-terminus (X in the sequence tables); Bpa = N[C@@H](Cc1ccc(C(=O)c2ccccc2)cc1)C(=O)O; d2Nal = N[C@H](Cc1ccc2ccccc2c1)C(=O)O; DO3A10CM = not defined here; Bpa4 = non-natural residue; Amfe4 = not defined here; Tha = not defined here; azaGly = NNC(=O)O; Sar = CNCC(=O)O

Experiments:
[1] = tested on: EFO-27 human ovarian cancer cells (LHRH binding sites); test: Saturation binding of radiolabeled LHRH-II analogs to EFO-27 cells
Protocol: Saturation binding of ^125I-LHRH II and the ^177Lu-labeled LHRH II analog ^177Lu-BRU-2666 to EFO-27 cells was carried out to determine the binding affinity, binding capacity (Bmax) and receptor numbers. The data were analyzed for a single binding site using Prizm software.

EFO-27 cells = test: Internalization/efflux studies in EFO-27 cells; assay type: cell-based, human
Protocol: Internalization/Efflux Studies: The internalization and efflux studies were carried out following the general procedure. Basically, ^177Lu-LHRH II or ^125I-LHRH II ([^125I-Tyr^8]BRU-2477) (75 uL, 3.0 μCi/mL) was added to the EFO-27 or PC-3 cells. The cells were incubated for 40 min at 37° C. The unbound radioactivity was washed off (4×). Following addition of fresh medium, the cells were further incubated for up to 2 h. At various time points (15, 30, 60 & 120 min) the distribution of radioactivity (membrane-bound, internalized, and efflux) was determined
The internalization and efflux of several Lu-177 labeled LHRH II analogs in EFO-27 cells have been investigated. Basically, following pre-incubation of cells with ^177Lu-LHRH II samples, the binding buffer containing the ^177Lu was replaced with fresh media without complex. The extent of initial internalization (T=0), the amount of radioactive material that remained internalized and the efflux at 0-120 min were determined. The results are shown in FIGS. 21a-f and 22a-c and in Table 25.

[2] = biological target: T1, LHRH binding sites on EFO-27 human ovarian cancer cells (human); test: competition with [125I-Tyr8]BRU-2477 on EFO-27 cells
T1 chain: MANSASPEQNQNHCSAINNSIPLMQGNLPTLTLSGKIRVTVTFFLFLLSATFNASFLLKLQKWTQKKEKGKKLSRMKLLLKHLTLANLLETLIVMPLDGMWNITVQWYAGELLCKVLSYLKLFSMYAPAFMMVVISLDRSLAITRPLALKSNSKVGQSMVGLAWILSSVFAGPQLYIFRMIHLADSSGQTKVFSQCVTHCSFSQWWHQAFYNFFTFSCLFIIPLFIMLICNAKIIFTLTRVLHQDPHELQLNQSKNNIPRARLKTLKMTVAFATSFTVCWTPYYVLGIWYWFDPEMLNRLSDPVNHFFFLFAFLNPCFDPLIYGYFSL

[3] = biological target: T1, LHRH binding sites (presumed LHRH …); test: as above
[4] = biological target: T1, LHRH binding sites (presumed LHRH …); test: as above
[5] = biological target: T1, LHRH binding sites (presumed LHRH …); test: as above
[6] = biological target: T1, LHRH binding sites (presumed LHRH …); test: as above
[7] = biological target: T1, LHRH binding sites (presumed LHRH …); test: as above
[8] = biological target: T1, LHRH binding sites (presumed LHRH …); test: as above
[9] = biological target: LHRH receptor (LHRH binding sites) on EFO-27 human ovarian cancer cells (human); test: direct binding of 177Lu-labeled peptide to EFO-27 cells, single concentration
[10] = biological target: LHRH receptor (LHRH binding sites) on EFO-27 human ovarian cancer cells (human); test: internalization/efflux study, cell-associated radioactivity, EFO-27 cells, 200 fmoles added/well
[11] = biological target: LHRH receptor (LHRH binding sites) on EFO-27 human ovarian cancer cells (human); test: internalization/efflux study, cell-associated radioactivity, EFO-27 cells
[12] = biological target: LHRH receptor (LHRH binding sites) on EFO-27 human ovarian cancer cells (human); test: competition with [125I-Tyr8]BRU-2477 for binding to EFO-27 cells
[13] = biological target: LHRH binding sites on EFO-27 human ovarian cancer cells (human); test: competition with [125I-Tyr8]BRU-2477 on EFO-27 cells; remark: listed apart in the source
[14] = biological target: LHRH receptor (LHRH binding sites) on EFO-27 human ovarian cancer cells (human); test: competition with [125I-Tyr8]BRU-2477, EFO-27 cells
[15] = biological target: LHRH binding sites on EFO-27 human ovarian cancer cells (human); test: competition with [125I-Tyr8]BRU-2477 on EFO-27 cells; remark: listed apart in the source
[16] = biological target: LHRH receptor (LHRH binding sites) on EFO-27 human ovarian cancer cells (human); test: competition with [125I-Tyr8]BRU-2477 for binding to EFO-27 cells; remark: listed apart in the source
[17] = biological target: LHRH receptor (LHRH binding sites) on EFO-27 human ovarian cancer cells (human); test: as above; remark: listed apart in the source
[18] = saturation binding, single binding site

Molecule: N=C(N)NCCC[C@@H](NC(=O)[C@H](Cc1c[nH]cn1)NC(=O)[C@H](CO)NC(=O)[C@H](Cc1c[nH]c2ccccc12)NC(=O)[C@H](Cc1c[nH]cn1)NC(=O)[C@@H]1CCC(=O)N1)C(=O)N[C@@H](Cc1c[nH]c2ccccc12)C(=O)N[C@@H](Cc1ccc(O)c(I)c1)C(=O)N1CCC[C@H]1C(=O)NNC(N)=O [125I-LHRH II, Darg^6,^125I-Tyr^8,azaGly^10-LHRH-II, reference compound]
receptor numbers [1]: 85×10^6 /cell
Kd [1, 18]: 1290 nM
Max. binding (Bmax) [1, 18]: 141 pmoles/10^6 cells
Receptors/cell [1, 18]: 85 ×10^6
Kd ([1]; single binding site): 1290 nM
binding capacity (Bmax) ([1]; single binding site): 141 pmoles/million cells
Cell associated activity at 0 h % Efflux (EFO-27 cells; 0 h): 19%
Cell associated activity at 0 h % Intern (EFO-27 cells; 0 h, internalized): 36.7%
Cell associated activity at 0 h % Memb (EFO-27 cells; 0 h, membrane bound): 44.6%
Cell associated activity at 2 h % Efflux (EFO-27 cells; 2 h): 87.1%
Cell associated activity at 2 h % Intern (EFO-27 cells; 2 h, internalized): 4.9%
Cell associated activity at 2 h % Memb (EFO-27 cells; 2 h, membrane bound): 3.5%
initial internalization (EFO-27 cells; % of total bound (cell-associated) radioactivity, T=0): 35.6%
Bound % (EFO-27 cells; of added): 1.20%
Bound (EFO-27 cells; per well): 1.87 fmol

B2: BRU-3110 (peptide)
peptide: DO3A10CM-[d2Nal]RESH[dR]W[Bpa]P[azaGly]-NH2
modifications: reading uncertain
notes: AA3 Glu
EC50 [3]: 2600 nM
fold lower binding potency than BRU-2813 [4]: ~8 fold

B5: BRU-3113 (peptide)
peptide: DO3A10CM-[d2Nal]RWLH[dR]W[Bpa]P[azaGly]-NH2
modifications: reading uncertain
notes: AA4 Leu
EC50 [2]: 1130 nM

B6: BRU-2667 (peptide)
peptide: {DO3A10CM(3)}-GPHWSH[dR]W[Bpa]P[azaGly]-NH2
notes: AA1 Pro
EC50 [6]: 7290 nM

B9: BRU-3050 (peptide)
peptide: RRWSHXWXPX
modifications: DO3A10CM on N-terminus; AA6 Darg; AA8 Bpa4; AA10 azaGly-NH2
notes: AA1 Arg, AA2 Arg
EC50 [6]: 310 nM

B10: BRU-3064 (peptide)
peptide: DO3A10CM-[d2Nal]RWSH[dR]W[Bpa4]-OH
modifications: reading uncertain
EC50 [8]: 670 nM

B11: BRU-3111 (peptide)
peptide: XRRSHXWXPX
modifications: DO3A10CM on N-terminus; AA1 Dnal2; AA6 Darg; AA8 Bpa4; AA10 azaGly-NH2
notes: AA3 Arg
EC50 [3]: 250 nM

B13: BRU-2740 (peptide)
peptide: {DO3A10CM″}-[Sar]WS[Tha][dR]W[Bpa]P[azaGly]-NH2
modifications: reading uncertain
EC50 [5]: 5.53 µM

B19: BRU-3114 (peptide)
peptide: DO3A10CM-[d2Nal]RWWH[dR]W[Bpa]P[azaGly]-NH2
modifications: reading uncertain
notes: AA4 Trp
EC50 [2]: 11500 nM

B20: BRU-2666 (peptide)
peptide: XHWSHXWXPX
modifications: as printed: DO3A10CM-Dnal2-His-Trp-Ser-His-Darg-Trp-Bpa4-Pro-azaGly-NH2
EC50 [12]: 390 nM
EC50 [13]: 470 nM
EC50 [14]: 470 nM
EC50 [15]: 2600 nM
times more potent than the Sar1 analog (BRU-2443) [15]: 2 times

B23: BRU-2723 (peptide)
peptide: DO3A10CM-[Sar]HWSH[dR]WRP[azaGly]-NH2
modifications: reading uncertain
notes: AA8 Arg
EC50 [7]: 2.83 µM

B25: ^177Lu-BRU-2756 (peptide)
peptide: DO3A10CM-[Sar][Amfe4]WSH[dR]W[Bpa]P[azaGly]-NH2
modifications: reading uncertain; also: 177Lu complexed by DO3A10CM, printed as 177Lu-DO3A10CM-Sar-Amfe4-Trp-Ser-His-Darg-Trp-Bpa4-Pro-azaGly-NH2
% Bound [9]: 5.17%
Bound fmoles [10]: 10.2 fmol
Bound % [11]: 5.1%

B26: BRU-3029 (peptide)
peptide: DO3A10CM-[d2Nal]RWSL[dR]W[Bpa]P[azaGly]-NH2
modifications: reading uncertain
notes: AA5 Leu
EC50 [5]: 1.21 µM

Second part, the molecule after the results:

EC50 [2]: 220 nM
B1: BRU-2964 (peptide)
peptide: DO3A10CM-[d2Nal]RWMH[dR]W[Bpa]P[azaGly]-NH2
modifications: reading uncertain
notes: AA4 Met

EC50 [2]: 280 nM
B3: BRU-2956 (peptide)
peptide: XRWNHXWXPX
modifications: DO3A10CM on N-terminus; AA1 Dnal2; AA6 Darg; AA8 Bpa4; AA10 azaGly-NH2
notes: AA4 Asn

EC50 [5]: 1.09 µM
B4: BRU-3028 (peptide)
peptide: DO3A10CM-[d2Nal]RWSA[dR]W[Bpa]P[azaGly]-NH2
modifications: reading uncertain
notes: AA5 Ala

EC50 [3]: 430 nM
B7: BRU-3106 (peptide)
peptide: XRFSHXWXPX
modifications: DO3A10CM on N-terminus; AA1 Dnal2; AA6 Darg; AA8 Bpa4; AA10 azaGly-NH2
notes: AA3 Phe

EC50 [7]: 13.6 µM
B8: BRU-2763 (peptide)
peptide: {DO3A10CM″}-[Sar]HWSH[dR]WHP[azaGly]-NH2
notes: AA8 His

EC50 [7]: 12.9 µM
B12: BRU-2730 (peptide)
peptide: DO3A10CM-[Sar]HWSH[dR]WFP[azaGly]-NH2
modifications: reading uncertain
notes: AA8 Phe

% Bound [9]: 11.1%
Bound fmoles [10]: 19 fmol
Bound % [11]: 9.5%
B14: ^177Lu-BRU-2757 (peptide)
peptide: XHWSHXWXPX
modifications: 177Lu held by the N-terminal DO3A10CM: 177Lu-DO3A10CM-Damfe4-His-Trp-Ser-His-Darg-Trp-Bpa4-Pro-azaGly-NH2

EC50 [3]: 560 nM
B15: BRU-3108 (peptide)
peptide: DO3A10CM-[d2Nal]RLSH[dR]W[Bpa]P[azaGly]-NH2
modifications: reading uncertain
notes: AA3 Leu

EC50 [5]: 8.84 µM
B16: BRU-2670 (peptide)
peptide: {DO3A10CM(3)}-[Sar]HWSY[dR]L[Bpa]P[azaGly]-NH2
notes: AA5 Tyr, AA7 Leu

EC50 [2]: 4200 nM
B17: BRU-2954 (peptide)
peptide: DO3A10CM-[d2Nal]RWDH[dR]W[Bpa]P[azaGly]-NH2
modifications: reading uncertain
notes: AA4 Asp

EC50 [7]: 10 µM
B18: BRU-2767 (peptide)
peptide: DO3A10CM-[Sar]HWSH[dR]WP[azaGly]-NH2
modifications: not fully specified; reading uncertain

fold lower binding potency than BRU-2443 [4]: ~8 fold
EC50 [5]: 7.34 µM
B21: BRU-2769 (peptide)
peptide: DO3A10CM-[Sar]HWS[Tha][dR]W[Bpa]P[azaGly]-NH2
modifications: reading uncertain

EC50 [5]: 3.47 µM
B22: BRU-2668 (peptide)
peptide: {DO3A10CM(3)}-[Sar]HWSY[dR]W[Bpa]P[azaGly]-NH2
notes: AA5 Tyr

EC50 [12]: 300 nM
EC50 [13]: 330 nM
EC50 [14]: 330 nM
EC50 [16]: 420 nM
percent more potency than BRU-2666 [15]: 30%
EC50 [17]: 330 nM
B24: BRU-2813 (peptide)
peptide: XRWSHXWXPX
modifications: as printed: DO3A10CM-Dnal2-Arg-Trp-Ser-His-Darg-Trp-Bpa4-Pro-azaGly-NH2

EC50 [6]: 1370 nM
B27: BRU-2795 (peptide)
peptide: GGHWSHXWXPX
modifications: DO3A10CM-Gly (linker) on N-terminus; AA6 Darg; AA8 Bpa4; AA10 azaGly-NH2
notes: AA1 Gly
